This data set deals with Re-PAX5 P80R (Homo sapiens, UniProt Q02548 1-391, P80R). As to the kind of experiment: EMSA. In general terms: In EMSA bound probe runs differently from free probe, usually more slowly.
Chain of Re-PAX5 P80R (Q02548 whole entry P80R): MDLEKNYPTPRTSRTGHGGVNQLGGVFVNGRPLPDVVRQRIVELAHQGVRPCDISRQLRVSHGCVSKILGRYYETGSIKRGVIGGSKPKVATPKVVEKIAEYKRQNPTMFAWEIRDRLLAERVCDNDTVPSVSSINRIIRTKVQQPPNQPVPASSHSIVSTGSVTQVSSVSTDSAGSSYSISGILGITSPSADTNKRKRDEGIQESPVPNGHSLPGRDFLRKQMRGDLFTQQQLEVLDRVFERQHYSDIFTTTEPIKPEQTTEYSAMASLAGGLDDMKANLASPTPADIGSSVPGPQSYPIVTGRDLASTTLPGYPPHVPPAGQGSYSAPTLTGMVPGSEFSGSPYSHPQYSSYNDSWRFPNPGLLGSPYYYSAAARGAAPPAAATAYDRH

B1: Probe-1 (GINS1 promoter site1) (dsDNA)
DNA 1: GGTGCGGTGGCTCACGCTGTAATTCC
DNA 2: GGAATTACAGCGTGAGCCACCGCACC
For B1, the binding result is “no binding”.

(Values after PMC10394140.)
